From patent US5622828, “High-affinity oligonucleotide ligands to secretory phospholipase A2 (sPLA2)” (Nexstar Pharmaceuticals, Inc.)
Like-named read-outs stand apart in the source and are kept apart here.

Key:
[1] = target: T1, secretory phospholipase A2 (sPLA2) (Homo sapiens, UniProt P14555 P14555:21-144); assay: filter; biphasic, Kd2 82 nM, mole fraction 0.50; TBSC, 37 C; settings: tags: supplied by Eli Lilly
T1 sequence: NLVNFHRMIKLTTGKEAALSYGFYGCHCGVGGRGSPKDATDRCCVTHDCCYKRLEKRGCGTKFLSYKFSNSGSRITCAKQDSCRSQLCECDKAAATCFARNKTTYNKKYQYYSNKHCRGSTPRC
Experimental: (§1) The nitrocellulose filter partitioning method was used as described in SELEX Patent Applications to determine the affinity of RNA ligands for sPLA_2 and for other promins. Filter discs (nitrocellulose/cellulose acetate mixed matrix, 0.45 µm pore size, Millipore) were placed on a vacuum manifold and washed with 5 ml of TBSC buffer under vacuum. Reaction mixtures, containing ^32P labeled RNA pools and sPLA_2, were incubated in TBSC for 5 minutes at 37° C., filtered, and then immediately washed with 5 ml TBSC. The filters were air-dried and counted in a Beckman liquid scintillation counter without fluor.
(§2) The dissociation constants for representative members of families I–VI, orphan and other ligands were determined by nitrocellulose filter binding experiments and are listed in Table III. Unlike random RNA, all tested ligands from the 2'OH SELEXes bound biphasically.

[2] = target: T1, secretory phospholipase A2 (sPLA2); assay: filter; biphasic, Kd2 140 nM, mole fraction 0.65; TBSC, 37 C; settings: tags: supplied by Eli Lilly
Experimental: as §1, §2

[3] = target: T1, secretory phospholipase A2 (sPLA2); assay: filter; biphasic, Kd2 150 nM, mole fraction 0.2; conserved G replaced by U; TBSC, 37 C; settings: tags: supplied by Eli Lilly; hairpin with asymmetric internal loop
Experimental: as §1, §2

[4] = target: T2, basic fibroblast growth factor (bFGF) (Homo sapiens, UniProt P09038 P09038:143-288); assay: filter; specificity control, like random RNA; TBSC
T2 sequence (P09038 143-288, one chain of several): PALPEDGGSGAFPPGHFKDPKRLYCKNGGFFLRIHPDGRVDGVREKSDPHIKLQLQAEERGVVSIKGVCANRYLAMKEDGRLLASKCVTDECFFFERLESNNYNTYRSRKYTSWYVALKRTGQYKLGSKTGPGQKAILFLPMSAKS
Experimental: (§3) The affinity of sPLA_2 ligands 2, 72, 80, 87, NN19 and NN19.15 (SEQ ID NOs.:11, 20, 53, 54, 64, and 117, respectively) for proteins other than sPLA_2 was determined by nitrocellulose partitioning (Tables IV and V). Like sPLA_2, hen egg white lysozyme, bFGF and elastase are small, highly cationic proteins. Bovine pancreatic PLA_2 is an evolutionarily and structurally related enzyme. […] Specificity is particularly well illustrated by the affinities for bovine pancreatic PLA_2 which is 10^4-fold less than that for human sPLA_2.
(§4) *Standard binding experiments were performed to the specified target protein in TBSC and K_d's calculated by curve fitting. The ligands bind no better than randomized RNA (30N1) to human neutrophil elastase, human basic fibroblast growth factor (bFGF), and human immunoglobulin G (IgG and C1q).

neutrophil elastase = neutrophil elastase (Homo sapiens, UniProt P08246 P08246:30-267); assay: filter; specificity control, like random RNA; TBSC
Sequence of neutrophil elastase (P08246 30-267, one chain of several): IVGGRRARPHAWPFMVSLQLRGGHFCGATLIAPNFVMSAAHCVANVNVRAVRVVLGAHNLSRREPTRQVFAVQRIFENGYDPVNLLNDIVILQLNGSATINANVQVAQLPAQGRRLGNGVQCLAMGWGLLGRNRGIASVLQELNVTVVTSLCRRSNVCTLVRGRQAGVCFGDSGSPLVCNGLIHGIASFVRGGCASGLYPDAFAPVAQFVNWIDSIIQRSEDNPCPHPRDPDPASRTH
Experimental: as §3, §4

[5] = target: T1, secretory phospholipase A2 (sPLA2); assay: filter; monophasic; Table V prints 1 nM; TBSC, 37 C; settings: tags: supplied by Eli Lilly; hairpin with asymmetric internal loop
C1q (printed Clq) = C1q (printed Clq) (Homo sapiens, UniProt P02745;P02746;P02747 P02745:23-245,P02746:28-253,P02747:29-245); assay: filter; specificity control, like random RNA; TBSC; settings: chain copies: 6
Sequence of C1q (printed Clq) (P02745 23-245, chain 1 of 3): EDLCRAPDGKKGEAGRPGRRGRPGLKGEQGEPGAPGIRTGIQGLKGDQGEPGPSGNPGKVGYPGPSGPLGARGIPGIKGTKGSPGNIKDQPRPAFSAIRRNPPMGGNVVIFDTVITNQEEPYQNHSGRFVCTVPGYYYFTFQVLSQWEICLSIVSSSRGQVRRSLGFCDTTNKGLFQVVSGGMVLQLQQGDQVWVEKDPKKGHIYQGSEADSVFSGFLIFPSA
Sequence of C1q (printed Clq) (P02746 28-253, chain 2 of 3): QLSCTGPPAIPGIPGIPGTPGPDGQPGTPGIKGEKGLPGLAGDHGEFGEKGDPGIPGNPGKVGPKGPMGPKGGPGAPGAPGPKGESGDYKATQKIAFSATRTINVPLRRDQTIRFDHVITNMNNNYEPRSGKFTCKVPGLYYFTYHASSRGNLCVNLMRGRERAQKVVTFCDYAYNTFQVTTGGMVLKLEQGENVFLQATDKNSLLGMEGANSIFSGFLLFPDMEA
Sequence of C1q (printed Clq) (P02747 29-245, chain 3 of 3): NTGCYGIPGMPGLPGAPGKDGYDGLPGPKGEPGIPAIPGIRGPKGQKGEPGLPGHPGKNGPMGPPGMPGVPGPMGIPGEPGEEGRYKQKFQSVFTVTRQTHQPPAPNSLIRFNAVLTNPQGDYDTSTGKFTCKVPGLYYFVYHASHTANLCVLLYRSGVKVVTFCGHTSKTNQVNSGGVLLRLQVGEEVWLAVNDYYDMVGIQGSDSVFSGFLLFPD
Experimental: as §3, §4

[6] = target: T1, secretory phospholipase A2 (sPLA2); assay: filter; Table V prints 0.4 nM; TBSC, 37 C; settings: tags: supplied by Eli Lilly
[7] = target: T1, secretory phospholipase A2 (sPLA2); assay: filter; biphasic, Kd2 200 nM, mole fraction 0.20; calcium dependent; TBSC, 37 C; settings: tags: supplied by Eli Lilly
Experimental: as §1, §2

[8] = target: T1, secretory phospholipase A2 (sPLA2); assay: filter; biphasic, Kd2 92 nM, mole fraction 0.60; TBSC, 37 C; settings: tags: supplied by Eli Lilly
Experimental: as §1, §2

[9] = target: T1, secretory phospholipase A2 (sPLA2); assay: filter; biphasic, Kd2 350 nM, mole fraction 0.70; TBSC, 37 C; settings: tags: supplied by Eli Lilly
Experimental: as §1, §2

[10] = target: T1, secretory phospholipase A2 (sPLA2); assay: filter; biphasic, Kd2 240 nM, mole fraction 0.50; TBSC, 37 C; settings: tags: supplied by Eli Lilly
Experimental: as §1, §2

[11] = target: pancreatic phospholipase A2 (bpPLA2) (Bos taurus, UniProt P00593 P00593:23-145); assay: filter; specificity control, like random RNA; TBSC
Sequence of pancreatic phospholipase A2 (bpPLA2) (P00593 23-145, one chain of several): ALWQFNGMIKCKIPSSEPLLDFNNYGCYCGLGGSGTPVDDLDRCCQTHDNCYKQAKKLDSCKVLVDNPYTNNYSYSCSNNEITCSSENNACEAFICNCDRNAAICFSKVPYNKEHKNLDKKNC
Experimental: as §3
(§5) *Standard binding experiments were performed to the specified target protein in TBSC and K_d's is calculated by curve fitting. The ligands bind no better than randomized RNA (30N1) to lysozyme (hen egg-white), human basic fibroblast growth factor basic (bFGF) and bovine pancreatic PLA₂. The sPLA₂ K_d that of the high affinity species.

[12] = target: T2, basic fibroblast growth factor (bFGF); assay: filter; specificity control, like random RNA; TBSC; remark: listed apart in the source
Experimental: as §3, §5

lysozyme (egg white) = lysozyme (egg white) (Gallus gallus, UniProt P00698 P00698:19-147); assay: filter; specificity control, like random RNA; TBSC; settings: tags: 6x crystallized
Sequence of lysozyme (egg white) (P00698 19-147, one chain of several): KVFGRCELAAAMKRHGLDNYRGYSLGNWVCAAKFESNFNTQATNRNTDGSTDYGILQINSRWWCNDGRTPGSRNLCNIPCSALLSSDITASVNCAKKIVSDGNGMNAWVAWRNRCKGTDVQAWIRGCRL
Experimental: as §3, §5

[13] = target: T1, secretory phospholipase A2 (sPLA2); assay: filter; biphasic, Kd2 270 nM, mole fraction 0.13; Table III prints SEQ 103, Table IV SEQ 20; TBSC, 37 C; settings: tags: supplied by Eli Lilly
Experimental: as §1, §2

[14] = hairpin with asymmetric internal loop

B1: 93 (ssRNA)
RNA: GGGAGCUCAGAAUAAACGCUCAACAGCCAAUGUGUCCCGUACGGCGUAUCCUAUUCGACAUGAGGCCCGGAUCCGGC
Kd [1]: 17.2 nM

B2: 95 (ssRNA)
RNA: GGGAGCUCAGAAUAAACGCUCAACGCUGGAUACCAUCGCACGGCGUAUCCUGCUUCGACAUGAGGCCCGGAUCCGGC
Kd [2]: 4.5 nM

B3: NN27 (ssRNA)
RNA: GGGAAAAGCGAAUCAUACACAAGACCGGCCGGGGAAACCCGAGGUCCGAUGUAACGCAUGGCGCCUCACCGAGUCGCUCCGCCAGAGACCAACCGAGAA
modifications: 2'-NH2 all C and U
Kd [3]: 0.4 nM

B4: NN19 (ssRNA)
RNA: GGGAAAAGCGAAUCAUACACAAGACCGGCCGGCGCCAUAGCCGAGAUCCGAGGUGUUGAACGAUAACUCGGUGCUCCGCCAGAGACCAACCGAGAA
modifications: 2'-NH2 all C and U
Kd [4, 14]: 210 nM | Kd (neutrophil elastase; [14]): 40 nM | Kd [5]: 0.4 nM

B5: NN19.15 (ssRNA)
RNA: GGGAAAAGAAGACCGGCCGGCGCCAUAGCCGAGAUCCGAGGUGUUGCCGAGAA
modifications: 2'-NH2 all C and U
Kd (C1q (printed Clq)): 1000 nM | Kd [4]: 165 nM | Kd (neutrophil elastase): 40 nM | Kd [6]: 1.7 nM

B6: 60 (orphan) (ssRNA)
RNA: GGGAGCUCAGAAUAAACGCUCAAACAACGGCCCACACGGGAGAUCCGAGAAAAGUUCGACAUGAGGCCCGGAUCCGGC
Kd [7]: 0.3 nM

B7: 85 (ssRNA)
RNA: GGGAGCUCAGAAUAAACGCUCAAAUUGCAUCAUGUACCGCAAGACGUAUUCUAUUCGACAUGAGGCCCGGAUCCGGC
Kd [8]: 3.8 nM

B8: 54 (ssRNA)
RNA: GGGAGCUCAGAAUAAACGCUCAAAUUGCAUCAUGUACCGUAAGACGUAUUCUAUUCGACAUGAGGCCCGGAUCCGGC
Kd [9]: 16.6 nM

B9: 18 (ssRNA)
RNA: GGGAGCUCAGAAUAAACGCUCAAAUCGCAUCAUGUACCGCAAGACGUAUUCUAUUCGACAUGAGGCCCGGAUCCGGC
Kd [10]: 5 nM

B10: 72 (ssRNA)
RNA: GGGAGCUCAGAAUAAACGCUCAAGACCUCUGCUUACAGCCCGGCUGAGACACUUCGACAUGAGGCCCGGAUCCGGC
Kd [11]: 29000 nM | Kd [12]: 180 nM | Kd (lysozyme (egg white)): 1500 nM | Kd [13]: 0.5 nM
